Experimental findings from US20130177924A1 are described below.

For experiment [1], the target named is blocked scFv having a caspase 3 protease substrate in the peptide linker (H6-MG VH / HL1-TO1 VL), peptide construct SEQ ID NO:51, displayed on yeast. Briefly: cell-based or functional assay.
For experiment [2], the target named is blocked scFv having an HRV-3C protease substrate in the peptide linker (H6-MG VH / HL1-TO1 VL), pept. Briefly: cell-based or functional assay.

caspase 3 protease (enzyme) yielded a time to complete activation of MG fluorescence, 10^6 yeast cells with 1 unit of caspase 3 protease at 25 C in experiment [1] of 30 min.
Human Rhinovirus 3C protease (enzyme) displayed a time to complete activation of MG fluorescence, 10^6 yeast cells with 1 unit of HRV-3C protease at 25 C in experiment [2] of 30 min.
